Experimental data taken from PMC7502484.

Target: human PTH1R in transiently transfected COS-7 cell membranes (human) (UniProt Q03431)
Assay: radioligand binding

UniProt Q03431, sequence (Q03431 27-593): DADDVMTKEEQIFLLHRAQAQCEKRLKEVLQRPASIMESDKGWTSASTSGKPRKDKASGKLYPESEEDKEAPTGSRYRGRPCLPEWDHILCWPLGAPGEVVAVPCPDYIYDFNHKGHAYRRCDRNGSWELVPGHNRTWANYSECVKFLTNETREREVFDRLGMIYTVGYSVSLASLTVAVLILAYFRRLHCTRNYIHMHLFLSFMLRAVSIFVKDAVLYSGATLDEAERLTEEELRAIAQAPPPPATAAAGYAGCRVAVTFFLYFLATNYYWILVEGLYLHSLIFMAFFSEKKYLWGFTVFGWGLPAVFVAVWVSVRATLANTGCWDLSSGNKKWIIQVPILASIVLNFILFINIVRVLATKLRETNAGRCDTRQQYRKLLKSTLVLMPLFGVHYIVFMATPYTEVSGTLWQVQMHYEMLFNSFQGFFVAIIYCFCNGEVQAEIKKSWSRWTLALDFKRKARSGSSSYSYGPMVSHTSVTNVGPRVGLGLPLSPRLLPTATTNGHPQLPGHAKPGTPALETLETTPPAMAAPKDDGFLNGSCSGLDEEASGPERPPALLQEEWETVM

PTH(1–34)^H9A (peptide)
IC50: 0.0137 µM
